Literature values in article PMC7295915.
One block for each substance: values may come before it.

What was measured:
ICAM-1 (Homo sapiens) = ICAM-1 (Homo sapiens) (UniProt P05362)
CD48 (Homo sapiens) = CD48 (Homo sapiens) (UniProt P09326)
CD40L (Homo sapiens) = CD40L (Homo sapiens) (UniProt P29965)
CD80 (Homo sapiens) = CD80 (Homo sapiens) (UniProt P33681)
Chain of CD80 (Homo sapiens) (P33681 35-242): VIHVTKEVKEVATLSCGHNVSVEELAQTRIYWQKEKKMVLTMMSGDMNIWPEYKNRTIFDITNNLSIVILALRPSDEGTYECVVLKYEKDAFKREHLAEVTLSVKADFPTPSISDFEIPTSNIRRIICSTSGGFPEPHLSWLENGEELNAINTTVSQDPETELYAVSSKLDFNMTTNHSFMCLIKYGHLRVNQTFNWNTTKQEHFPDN

Chain of CD2 (P06729 25-209): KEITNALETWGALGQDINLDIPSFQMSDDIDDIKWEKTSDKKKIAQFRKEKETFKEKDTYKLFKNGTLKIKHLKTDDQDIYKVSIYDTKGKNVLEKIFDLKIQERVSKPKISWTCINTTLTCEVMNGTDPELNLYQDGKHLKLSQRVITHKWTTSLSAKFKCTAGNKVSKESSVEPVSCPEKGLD
Chain of CD48 (Homo sapiens) (P09326 27-220): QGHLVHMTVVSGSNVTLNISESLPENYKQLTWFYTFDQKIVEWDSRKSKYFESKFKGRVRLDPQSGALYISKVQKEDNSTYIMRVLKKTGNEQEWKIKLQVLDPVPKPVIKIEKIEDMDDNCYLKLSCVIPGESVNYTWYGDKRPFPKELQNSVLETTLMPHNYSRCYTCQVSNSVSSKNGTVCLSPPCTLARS
Chain of CD40L (Homo sapiens) (P29965 113-261): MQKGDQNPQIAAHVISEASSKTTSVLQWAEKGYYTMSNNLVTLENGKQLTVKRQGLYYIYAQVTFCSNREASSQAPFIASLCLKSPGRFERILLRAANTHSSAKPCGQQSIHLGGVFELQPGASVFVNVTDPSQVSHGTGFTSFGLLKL
Chain of CD40 (P25942 21-277): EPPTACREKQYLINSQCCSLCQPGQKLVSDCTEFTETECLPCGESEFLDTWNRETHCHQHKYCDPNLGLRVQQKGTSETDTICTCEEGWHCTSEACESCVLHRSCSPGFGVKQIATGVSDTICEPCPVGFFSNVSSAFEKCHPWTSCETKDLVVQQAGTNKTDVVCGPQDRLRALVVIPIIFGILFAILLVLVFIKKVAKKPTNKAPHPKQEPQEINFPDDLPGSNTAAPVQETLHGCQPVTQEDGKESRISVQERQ
Chain of LFA-1 (P20701 26-1090): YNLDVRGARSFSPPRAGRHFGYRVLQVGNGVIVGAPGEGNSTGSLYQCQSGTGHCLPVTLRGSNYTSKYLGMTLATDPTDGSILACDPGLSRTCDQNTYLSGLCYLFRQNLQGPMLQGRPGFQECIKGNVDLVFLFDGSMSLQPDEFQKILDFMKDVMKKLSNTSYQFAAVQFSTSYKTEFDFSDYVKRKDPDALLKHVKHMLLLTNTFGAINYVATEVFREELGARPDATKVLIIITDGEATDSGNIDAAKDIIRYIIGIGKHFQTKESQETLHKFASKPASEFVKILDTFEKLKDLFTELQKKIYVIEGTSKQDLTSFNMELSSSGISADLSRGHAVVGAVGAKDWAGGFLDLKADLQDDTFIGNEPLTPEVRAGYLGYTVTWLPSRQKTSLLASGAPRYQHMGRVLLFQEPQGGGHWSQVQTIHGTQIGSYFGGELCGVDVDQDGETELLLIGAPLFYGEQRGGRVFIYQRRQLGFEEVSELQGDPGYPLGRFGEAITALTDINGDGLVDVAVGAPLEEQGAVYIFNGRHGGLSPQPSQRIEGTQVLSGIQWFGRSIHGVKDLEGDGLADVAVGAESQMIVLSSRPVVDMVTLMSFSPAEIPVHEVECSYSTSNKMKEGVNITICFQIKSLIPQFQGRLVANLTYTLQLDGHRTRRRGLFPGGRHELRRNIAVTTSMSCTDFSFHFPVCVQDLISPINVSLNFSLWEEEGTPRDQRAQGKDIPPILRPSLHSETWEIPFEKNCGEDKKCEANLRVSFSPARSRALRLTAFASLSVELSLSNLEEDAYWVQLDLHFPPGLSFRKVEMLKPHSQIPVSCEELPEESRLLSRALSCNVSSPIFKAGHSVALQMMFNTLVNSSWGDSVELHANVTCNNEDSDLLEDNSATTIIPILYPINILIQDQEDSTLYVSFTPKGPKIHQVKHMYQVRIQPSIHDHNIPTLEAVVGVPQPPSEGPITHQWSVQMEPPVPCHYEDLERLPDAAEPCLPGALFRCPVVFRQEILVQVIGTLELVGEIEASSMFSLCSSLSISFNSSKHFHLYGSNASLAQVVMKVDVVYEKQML
Chain of LFA-1 (P05107 23-700, further chain): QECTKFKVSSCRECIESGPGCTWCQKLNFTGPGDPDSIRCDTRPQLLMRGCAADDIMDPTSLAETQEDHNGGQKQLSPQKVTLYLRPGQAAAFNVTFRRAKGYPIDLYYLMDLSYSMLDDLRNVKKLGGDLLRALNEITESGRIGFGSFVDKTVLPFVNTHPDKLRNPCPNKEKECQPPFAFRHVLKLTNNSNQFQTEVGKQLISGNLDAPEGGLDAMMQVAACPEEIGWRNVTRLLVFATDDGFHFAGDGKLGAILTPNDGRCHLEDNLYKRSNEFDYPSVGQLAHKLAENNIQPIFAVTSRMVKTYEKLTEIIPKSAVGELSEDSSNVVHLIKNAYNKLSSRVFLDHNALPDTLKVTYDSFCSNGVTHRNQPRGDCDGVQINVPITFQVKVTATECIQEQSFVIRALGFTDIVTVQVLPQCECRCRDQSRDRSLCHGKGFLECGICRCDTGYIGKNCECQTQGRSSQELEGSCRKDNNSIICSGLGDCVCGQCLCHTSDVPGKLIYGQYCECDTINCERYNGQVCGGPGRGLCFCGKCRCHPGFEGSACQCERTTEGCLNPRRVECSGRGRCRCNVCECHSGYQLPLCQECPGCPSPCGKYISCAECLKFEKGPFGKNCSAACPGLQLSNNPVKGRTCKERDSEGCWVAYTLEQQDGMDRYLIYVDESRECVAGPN
Chain of ICAM-1 (Homo sapiens) (P05362 28-480): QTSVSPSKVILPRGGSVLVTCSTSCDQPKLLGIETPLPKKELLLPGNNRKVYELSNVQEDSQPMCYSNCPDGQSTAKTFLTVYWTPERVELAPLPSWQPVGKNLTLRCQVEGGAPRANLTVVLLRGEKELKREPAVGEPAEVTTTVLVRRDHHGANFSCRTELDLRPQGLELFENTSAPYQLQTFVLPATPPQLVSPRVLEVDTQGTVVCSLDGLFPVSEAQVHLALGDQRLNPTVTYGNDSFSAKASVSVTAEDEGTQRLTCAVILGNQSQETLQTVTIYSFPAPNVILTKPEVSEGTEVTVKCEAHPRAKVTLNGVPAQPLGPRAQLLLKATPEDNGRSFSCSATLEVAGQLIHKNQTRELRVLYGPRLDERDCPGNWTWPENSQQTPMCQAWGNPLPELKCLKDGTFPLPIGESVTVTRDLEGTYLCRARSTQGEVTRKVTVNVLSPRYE

Kd (ICAM-1 (Homo sapiens)): 0.5 µM
Substance: LFA-1 (from UniProt P20701)

Kd (CD48 (Homo sapiens)): 100 µM
Substance: CD2 (from UniProt P06729)

Kd (CD40L (Homo sapiens)): 0.2 µM
Substance: CD40 (from UniProt P25942)

Kd (CD80 (Homo sapiens)): 4 µM
Substance: CD28 (from UniProt P10747)
